Assay results reported in the supplement of paper PMC12042874.
± gives the uncertainty stated by the source.

Assay: amyloid nucleation score (Sup35N fusion, yeast selection) (log enrichment); library NNK2; higher = more nucleation; inactive = no reads after selection
Summary of the method: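 Random libraries were run with three technical output replicates. In each, psi-negative yeast expressing Sup35N fused to peptides of 20 random codons were induced 24 hours with 100 μM copper sulfate and grown 7 days at 30°C on medium lacking adenine and uracil, and input and output plasmid inserts were Illumina-sequenced. The nucleation score is the DiMSum log enrichment of output over input reads, centred on the mode score of non-aggregating sequences, and sequences under 100 input reads were excluded.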

Substance	amyloid nucleation score
VSACSDLNGW	-0.233 ± 0.47
VSARDHLGKRNRHWINC	-0.626 ± 0.55
VSASFEFRFSSGKWACLWRG	4.31 ± 0.057
VSDLLPVSDGSFTNPIVMLV	0.323 ± 0.26
VSDNFTYVLVYESGTGFTVS	inactive
VSENDGVRACCLS	0.474 ± 0.44
VSHFPGSPLTNKRSMLPAQM	2.01 ± 0.14
VSITHQLTYW	1.33 ± 0.53
VSMLISTTPAYIIRQFKGLW	1.09 ± 0.68
VSNGVVMDKCIRKICTVLTM	-0.667 ± 0.45
VSNREMYVNR	0.086 ± 0.74
VSQARVLCFMNFGRFLTLNE	5.51 ± 0.09
VSRMLSVMSMTTRMFLPYTS	0.152 ± 0.61
VSRMYKHLSYMVLIYSPWRE	-0.315 ± 1
VSRSVY	0.166 ± 0.3
VSRVEYCSGCMSANYLL	7.7 ± 0.08
VSSETSGFMIGYLYVDLNGV	-0.814 ± 0.4
VSSMHFFWF	-0.378 ± 0.54
VSTGAWCYGLWSVLQGWERG	5.02 ± 0.082
VSTWTYSHRAPRG	1.52 ± 0.26
VSVIGKFSFHPKRMRG	-0.481 ± 0.39
VSVRGTHVL	-0.28 ± 0.61
VSWLDYHVSPSRCRGTLNPC	0.463 ± 0.38
VTAAVNCFVNKAQLCTCLFM	9.097 ± 0.052
VTEIFMLAL	-0.129 ± 1.1
VTFSSIVTISLISYLQRFWR	5.77 ± 0.04

Substance	amyloid nucleation score
VTGNTSRLISRPGANPNCMG	-0.03 ± 0.56
VTHNYKFIQLGSEK	4.12 ± 0.074
VTRFLISYTRIGRMYSVGFV	-0.523 ± 1
VTRKTWFFVLCNQLFTLFAD	6.975 ± 0.058
VTSLDFKFNVGEY	0.832 ± 0.67
VTSLG	-0.249 ± 0.25
VTWALCAGGRQFVTFSS	8.505 ± 0.045
VTWGIIYRLSDG	3.58 ± 0.09
VTYEIVLWSWIKDVVHKLLR	-0.483 ± 0.48
VTYLGACVYRCCEMSLVFRF	-0.412 ± 0.63
VVANINEVLINPRCSAGFHD	0.683 ± 0.74
VVCYLRIYRRILYSGIKKWP	3.71 ± 0.073
VVDGLRATAH	0.366 ± 0.38
VVIAKDIMFSGSRINMVGSV	-1.23 ± 1.1
VVIHLLPSES	inactive
VVIILNDTNFLMINMVQRVM	4.327 ± 0.039
VVKLMAMFGRTNVLTLERHL	0.655 ± 0.31
VVLRELRIYIMNVWDPRGTL	-0.998 ± 0.62
VVMNFMTDVNSLVWPTS	inactive
VVNSQQFVGLCSRRSA	0.576 ± 0.42
VVRRYICRVLRMFWYWVVRE	-0.145 ± 0.76
VVRYRLCSWMDIMCNVAACQ	4.267 ± 0.042
VVTFTDYI	0.237 ± 1
VVTHYLQIYPRFSMHFFVSV	1.33 ± 0.22
VVTIIRSSVWVSTLCFGFFV	4.01 ± 0.068
VVTLRCSIVKEDTNGLLPGV	2.79 ± 0.09

Substance	amyloid nucleation score
VVVLFIEVLNCYLRGKVKCM	-0.802 ± 0.39
VVVNTYYSGIFMQVFLFL	6.76 ± 0.037
VVVNYVFPLSEFMLISDAKC	0.833 ± 0.8
VVWCGTYVYHDV	8.885 ± 0.075
VVWEYIRYRCCTYDAVYTRS	0.522 ± 0.74
VWDRITLFCSLLIRVHGLCT	0.269 ± 0.29
VWILSLAWLLPGYTCPFGPK	4.801 ± 0.042
VWKINISWRPSLSLLVIRLV	-0.594 ± 0.27
VWLFNLKGPLTRNLLHNLFA	-0.678 ± 0.63
VWNSIDTIYIYRHNYGFFYF	0.751 ± 0.36
VWPLNYYGWKTNMSSCFHST	-1.1 ± 1.1
VWQFRCGERMTKCLLWGDYG	0.072 ± 0.31
VWQVERVTIFLGFVKNLGLV	2.68 ± 0.084
VWRWSKRNATYIGAGIWSGR	1.42 ± 0.21
VWVSSIDMGLFVANLCETAS	-0.074 ± 1.1
VWYIALLQCQVRITYKGRVR	5.43 ± 0.073
VYCRNVELIGAYGIFAGSHI	-0.187 ± 0.79
VYEAWRTMQTGMYGVNRVWS	0.911 ± 0.15
VYHSGMTLFNFCCSMHLVEL	9.22 ± 0.041
VYKYI	-0.578 ± 1.1
VYNSFSAFFYG	7.051 ± 0.036
VYQMCFMAILVIRIVR	0.439 ± 0.25
VYRNVLSRMQSLCVF	inactive
VYTWNGRSWEYWTCPTLRNP	0.371 ± 0.8
VYVRFWESSSCYTRGRNGWN	3.08 ± 0.086
VYVWDELFVNKKANWTDL	1.29 ± 0.47

Substance	amyloid nucleation score
WARNEIYRRSTNKWPPMVRG	-0.014 ± 0.76
WAVELLLA	1.03 ± 0.53
WCCMGDMISVKSLVWEPCVT	3.17 ± 0.098
WCGARLKSDLCILK	-0.494 ± 0.31
WCHTGKRINFPFICFLWFWC	inactive
WCLFVLRRADTFRKGESVTC	1.79 ± 0.45
WCYELIYV	-0.573 ± 0.79
WDCGQTIYGFWDD	-0.58 ± 0.48
WDGLASLQVSCVAMLLVQSF	-0.546 ± 0.39
WDSQESITKS	-0.172 ± 0.54
WERDTFAVLLVRNFNR	0.187 ± 0.43
WESRLLEYLCTDVNTME	-0.553 ± 0.48
WFFRVLCLCRTLWNHYSFF	0.054 ± 0.79
WFGLDVNCLRSWFGLWKFVE	0.089 ± 0.56
WFLGMGKFHRRAWAARLFMV	2.45 ± 0.12
WFMVYYSLFTVNIGISRMDH	3.52 ± 0.16
WFNCEWEDEFIEGQRVVMTV	1.44 ± 0.47
WFPLGQHEKAEILSLMIVDR	-0.154 ± 0.49
WFSVVILLNSTMEYYQYLV	-0.128 ± 0.45
WFWNGLFNIRTVLDMHALCT	4.11 ± 0.088
WFYLCMFGAYLWRVRFDIRK	-0.428 ± 0.34
WGAVMACE	0.756 ± 0.49
WGFIVDFILSGRRPAGYQLL	0.309 ± 0.8
WGICSTEVSVIEWDWNGYQF	-1.14 ± 1.1
WGKLRGIPAYDYSLTGCLYV	0.647 ± 0.8
WGNILW	inactive

Substance	amyloid nucleation score
WGRWSHRWAFHYRACS	-0.879 ± 0.39
WGSEAHTDRVVQYWILALQR	1.19 ± 0.12
WHDNSSNGTGEGNFVRPVPV	1.13 ± 0.11
WHGQQDLDYYHFT	inactive
WHIFRNYAFIRVSM	0.036 ± 0.46
WIFFHGGRMRTCYRDAVGEV	-0.484 ± 0.36
WISNAWLYLWKHR	0.586 ± 0.81
WIWEKSHWSENISMVRCDVS	0.379 ± 0.55
WKVVSEIWIMGTSSTFVTDH	1.11 ± 0.12
WLAICVARWSETYCMFVWTT	-0.441 ± 1.1
WLCYRGEFRYFDPVGNDLRN	inactive
WLFIVFSTLS	-0.19 ± 1
WLHTTFSRSICSISIHRALE	-0.07 ± 0.48
WLLWS	0.472 ± 0.26
WLRLPICDLQLLNWADLRFV	0.236 ± 1.1
WLVFQFYVRGRREMVS	1.4 ± 0.2
WMSVG	-0.081 ± 1.1
WMTRIFTINVGNWWGFMHSR	3.02 ± 0.056
WNCLICRYVNVCKLLCFYY	6.505 ± 0.031
WNEIE	inactive
WNGYNGRDMCGKLCGVCTLG	0.219 ± 0.43
WNKYLCFKFRFYLPFVNYWL	inactive
